The values below come from article PMC3092982.

Assay [1] deals with Complement factor H (Homo sapiens) (UniProt P08603). To be noted: cited from earlier work.
The target in a further assay is C3d C3d (Homo sapiens) (UniProt P01024). Particulars: cited from earlier work.
Assay [2] concerns the target FH fragment SCR-16/20 (human). As to the kind of experiment: AUC; sedimentation velocity, SCR-16/20 at 0.1 mg/ml, Hepes buffer, 20 °C, c(s) analysis; monomer and dimer peaks across the ZnSO4 titration 0-600 μM.

pKd: −log10 of the molar value.

Sequence of Complement factor H (P08603 19-1231): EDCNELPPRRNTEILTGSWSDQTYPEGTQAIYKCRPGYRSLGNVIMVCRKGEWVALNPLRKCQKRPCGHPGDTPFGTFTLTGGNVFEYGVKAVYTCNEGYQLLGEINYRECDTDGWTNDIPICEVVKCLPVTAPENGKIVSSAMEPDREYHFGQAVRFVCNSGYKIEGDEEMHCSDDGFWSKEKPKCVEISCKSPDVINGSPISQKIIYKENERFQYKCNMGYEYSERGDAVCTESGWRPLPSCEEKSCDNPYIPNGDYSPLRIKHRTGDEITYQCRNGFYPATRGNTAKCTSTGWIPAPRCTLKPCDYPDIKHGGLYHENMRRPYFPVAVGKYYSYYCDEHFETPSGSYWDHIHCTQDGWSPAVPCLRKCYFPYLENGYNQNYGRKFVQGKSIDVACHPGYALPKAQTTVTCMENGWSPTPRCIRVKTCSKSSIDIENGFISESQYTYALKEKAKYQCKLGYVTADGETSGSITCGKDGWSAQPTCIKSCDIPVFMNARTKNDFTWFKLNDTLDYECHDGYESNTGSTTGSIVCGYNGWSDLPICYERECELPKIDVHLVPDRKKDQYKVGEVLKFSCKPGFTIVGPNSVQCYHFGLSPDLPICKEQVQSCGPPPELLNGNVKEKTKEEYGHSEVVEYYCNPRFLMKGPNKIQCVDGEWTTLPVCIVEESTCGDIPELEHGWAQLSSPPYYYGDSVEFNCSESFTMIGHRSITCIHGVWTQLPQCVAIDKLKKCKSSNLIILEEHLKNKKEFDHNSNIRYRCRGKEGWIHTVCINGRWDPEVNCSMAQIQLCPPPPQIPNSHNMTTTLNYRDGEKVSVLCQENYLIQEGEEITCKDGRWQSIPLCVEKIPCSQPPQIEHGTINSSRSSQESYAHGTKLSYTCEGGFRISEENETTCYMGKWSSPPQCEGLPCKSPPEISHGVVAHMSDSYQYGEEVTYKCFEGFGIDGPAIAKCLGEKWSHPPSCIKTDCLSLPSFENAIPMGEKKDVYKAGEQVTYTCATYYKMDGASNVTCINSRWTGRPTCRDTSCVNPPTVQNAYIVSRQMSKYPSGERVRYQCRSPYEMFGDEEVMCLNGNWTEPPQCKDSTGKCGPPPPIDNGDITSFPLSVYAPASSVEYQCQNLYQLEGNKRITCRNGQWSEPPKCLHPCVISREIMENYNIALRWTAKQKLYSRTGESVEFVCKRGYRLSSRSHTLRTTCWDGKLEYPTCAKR
Sequence of C3d C3d (Homo sapiens) (P01024 1002-1303): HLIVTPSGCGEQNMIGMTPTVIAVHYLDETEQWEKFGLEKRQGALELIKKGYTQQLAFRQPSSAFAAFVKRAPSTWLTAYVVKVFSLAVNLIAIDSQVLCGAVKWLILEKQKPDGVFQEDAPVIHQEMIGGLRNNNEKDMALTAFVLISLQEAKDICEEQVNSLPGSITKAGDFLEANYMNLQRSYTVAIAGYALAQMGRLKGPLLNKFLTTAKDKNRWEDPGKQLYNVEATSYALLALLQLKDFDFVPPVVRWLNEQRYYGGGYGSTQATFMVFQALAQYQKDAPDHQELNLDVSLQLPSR
Sequence of FH fragment SCR-16/20 (domain or fragment) (P08603 19-1231): as the sequence (P08603 19-1231) above

“Complement factor H (from UniProt P08603)”: the pKd (commonly −log10 of the Kd, conventionally taken in molar units) in assay [1] was 4.55; with C3d C3d (Homo sapiens) it was 5.59.

As to “FH fragment SCR-16/20 (domain or fragment)”, the stoichiometry N (commonly the number of molecules, sites or subunits per partner or assembly) in assay [2] was determined as 2.
